Results on one molecule are retold here after US10428140B2, “Anti-EphA4 antibody” (EISAI R&D MANAGEMENT CO., LTD., priority 2015, dated 2019).

Experiment [1] has as its system human Eph receptor (EphA1-A8, A10, EphB1-B4, B6). The experiment in a line: Selectivity ELISA for human Eph receptor family. In kind it is binding. The settings on record: antibody 10 μg/mL. The source says: According to the method described in Example 1, a DNA sequence encoding the signal sequence and the extracellular region of each human Eph receptor (EphA1, EphA2, EphA3, EphA4, EphA5, EphA6, EphA7, EphA8, EphA10, EphB1, EphB2, EphB3, EphB4, and EphB6) was amplified by RT-PCR using tissue-derived total RNA and cloned into a pENTR1A vector (Invitrogen/Life Technologies) having a DNA sequence encoding a human IgG1 Fc region and histidine tag. Next, the DNA sequence encoding the signal sequence and the extracellular region of each human Eph receptor, Fc, and histidine tag was transferred to a pcDNA3.1_rfcB vector through LR reaction using Gateway System (Invitrogen/Life Technologies) to construct a vector for the expression of a protein of the extracellular region of each human Eph receptor fused with the human IgG1 Fc region and the His tag (referred to as “Eph receptor extracellular region-Fc-His protein”) (this vector is referred to as “Eph receptor extracellular region-Fc-His protein expression vector”). […]
Antibody A was evaluated for its binding activity against each human Eph receptor according to the following steps.
Each well of a 96-well plate (Nunc) was coated with a donkey anti-human IgG antibody (Jackson ImmunoResearch Laboratories). […] The absorbance at 450 nm was read using a microplate reader (PerkinElmer).
For orientation: An ELISA detects its analyte on a solid surface through an enzyme-linked reagent.

Experiment [2] concerns mouse, rat, monkey, and human EphA4. The experiment in a line: Reactivity ELISA with mouse, rat, monkey, and human EphA4. In kind it is binding. The settings on record: 0.00128-20 μg/mL. How it is done:
Mouse, rat, monkey, and human EphA4 extracellular region-Fc-His proteins were prepared according to the following steps. First, according to the method described in Example 1, a monkey EphA4 extracellular region-Fc-His protein expression vector was constructed. The amino acid sequence of monkey EphA4 used in the vector construction is shown in SEQ ID NO: 44, and its extracellular region is shown in SEQ ID NO: 45. Next, HEK293EBNA cells (Life Technologies) were inoculated to a 10-cm dish (Falcon) and cultured at 37° C. for 1 day. The HEK293EBNA cells were transfected with the monkey EphA4 extracellular region-Fc-His protein expression vector or the mouse EphA4, rat EphA4, or human EphA4 extracellular region-Fc-His protein expression vector described in Example 1 using TransIT-LT1 (TAKARA). After incubation (5% CO2, 37° C.) for 4 days, the culture supernatant was recovered and centrifuged at 1500 rpm at room temperature for 5 minutes. […]
Antibody A was evaluated for its binding activity against various Eph receptors according to the following steps.
Each well of a 96-well plate (Nunc) was coated with a donkey anti-mouse IgG antibody (Jackson ImmunoResearch Laboratories). […] The absorbance at 450 nm was read using a microplate reader (PerkinElmer).

B1: antibody A: mouse anti-EphA4 monoclonal antibody, IgG1/κ; heavy chain variable region SEQ ID NO: 11, light chain variable region SEQ ID NO: 13 (antibody, listed as Mus musculus, V domains shown)
VH: QIQLVQSGPELKKPGETVKISCKASGYTFTDYSMHWVKQAPGKGLKWMGWINTETGEPTYADDFKGRFAFSLETSASTAYLQINNLKNEDTATYFCARIPLYYYGSRYWYFDVWGAGTTVTVSS
VL: DIQMTQSPASLSVSVGETVTITCRASENIYRNLAWYQQKQGKSPQLLVYAATNLADGVPSRFSGSGSGTQYSLKINSLQSEDFGSYYCQHFWGTPWTFGGGTKLEIK
For the molecule B1, the “binding specificity among human Eph receptor family (in words)” value in experiment [1] is recorded as “specifically had reaction activity only with human EphA4”. Also, the “reaction activity against mouse, rat, monkey, and human EphA4 (in words)” value in experiment [2] is “equivalent reaction activity against all of mouse, rat, monkey, and human EphA4”.
